Substitutions are numbered along the chain they refer to. Numbers in names are those of the source. Values belong to the molecule of their own block, whether it stands above or below them.
Assay: Covalent bilin (PCB) binding of recombinant apophytochrome polypeptides upon incubation with PCB (zinc blot)
Conditions: for covalent binding of PCB: incubation with PCB; for PCB Binding: site-directed mutants of Cph1 (N514)
Source text: This work thus confirms that the structural motif illustrated in FIG. 2 represents the bilin-binding domain of the ‘phytochrome superfamily’ from which new phytofluors of different colors can be devised.
Based on the multiple sequence alignment shown in FIG. 2, and using methods described in W098/04700, a bacterial expression vector express a Strep-Tagged version of N-terminal 197 amino acid region of Cph2 (Cph2-N197) that encompassed ‘module 1’ only was constructed (see, FIG. 3).
To address the importance of conserved residues in the bilin lyase domain of Cph1 to bilin attachment and spectral properties of its bilin adducts, site-directed mutagenesis of some of these residues were undertaken. Charged residues D171, R172, E189 and R222 of Cph1 (N514) were mutagenized in the initial studies.

covalent binding of PCB: covalently bind PCB
B1: cph2a (N390): first 390 amino acid residues of Cph2 (SLL0821), N-terminal phytochrome-related domain (protein, UniProt Q55434 1-390, looked up, fragment)
chain: MNPNRSLEDFLRNVINKFHRALTLRETLQVIVEEARIFLGVDRVKIYKFASDGSGEVLAEAVNRAALPSLLGLHFPVEDIPPQAREELGNQRKMIAVDVAHRRKKSHELSGRISPTEHSNGHYTTVDSCHIQYLLAMGVLSSLTVPVMQDQQLWGIMAVHHSKPRRFTEQEWETMALLSKEVSLAITQSQLSRQVHQQQVQEALVQRLETTVAQYGDRPETWQYALETVGQAVEADGAVLYIAPDLTGSVAQHYQWNLRFDWGNWLETSLWQELMRGQPSAAMEPMAAVQSTWEKPRPFTSVAPLPPTNCVPHGYTLGELEQRSDWIAPPESLSAENFQSFLIVPLAADQQWVGSLILLRKEKSLVKHWAGKRGIDRRNILPRLSFEAWE

covalent binding of PCB: yielded a covalent biliprotein adduct
B2: Cph2-N197: Strep-Tagged N-terminal 197 amino acid region of Cph2 (SEQ ID NO: 9), module 1 only (protein)
chain: KLAVRAISRLQSLPGGDIGALCDTVVEDVQRLTGYDRVMVYQFHEDDHGEVVSEIRRSDLEPYLGLHYPATDIPQAARFLFKQNRVRMICDCNATPVKVVQSEELKRPLCLVNSTLRAPHGCHTQYMANMGSVASLALAIVVKGKDSSKLWGLVVGHHCSPRYVPFPLRYACEFLMQAFGLQLQMELQLASQLAEK
modifications: Strep-Tag

PCB Binding: yes
B3: Cph1 (N514) R222G: site-directed single mutant R222G of Cph1 (N514) (protein, UniProt Q55168 1-514, looked up, variant R222G)
chain: MATTVQLSDQSLRQLETLAIHTAHLIQPHGLVVVLQEPDLTISQISANCTGILGRSPEDLLGRTLGEVFDSFQIDPIQSRLTAGQISSLNPSKLWARVMGDDFVIFDGVFHRNSDGLLVCELEPAYTSDNLPFLGFYHMANAALNRLRQQANLRDFYDVIVEEVRRMTGFDRVMLYRFDENNHGDVIAEDKRDDMEPYLGLHYPESDIPQPARRLFIHNPIGVIPDVYGVAVPLTPAVNPSTNRAVDLTESILRSAYHCHLTYLKNMGVGASLTISLIKDGHLWGLIACHHQTPKVIPFELRKACEFFGRVVFSNISAQEDTETFDYRVQLAEHEAVLLDKMTTAADFVEGLTNHPDRLLGLTGSQGAAICFGEKLILVGETPDEKAVQYLLQWLENREVQDVFFTSSLSQIYPDAVNFKSVASGLLAIPIARHNFLLWFRPEVLQTVNWGGDPNHAYEATQEDGKIELHPRQSFDLWKEIVRLQSLPWQSVEIQSALALKKAIVNLILRQAEE
modifications: N514 fragment

PCB Binding: yes
B4: Cph1 (N514) Wild Type: N514 deletion mutant of Synechocystis sp. PCC 6803 apophytochrome Cph1, wild-type sequence (protein, UniProt Q55168 1-514, looked up, fragment)
chain: B3 chain with G222R

PCB Binding: no
B5: Cph1 (N514) DR171/2AG: double mutant D171A/R172G of Cph1 (N514) (protein, UniProt Q55168 1-514, looked up, variant D171A R172G)
chain: B3 chain with D171A, R172G, G222R
modifications: N514 fragment

PCB Binding: yes
B6: Cph1 (N514) D171A: site-directed single mutant D171A of Cph1 (N514) (protein, UniProt Q55168 1-514, looked up, variant D171A)
chain: B3 chain with D171A, G222R
modifications: N514 fragment

PCB Binding: no
B7: Cph1 (N514) DR171/2AA: double mutant D171A/R172A of Cph1 (N514) (protein, UniProt Q55168 1-514, looked up, variant D171A R172A)
chain: B3 chain with D171A, R172A, G222R
modifications: N514 fragment

From patent US20020022239A1, “PHYTOFLUORS AS FLUORESCENT LABELS” (priority 1999, published 2002)
